Assay results reported in the supplement of paper PMC10567573.

B1: SOAT1 (parent)
chain: VYYIFERLCAPLFRNIKQEPFSAR
B2: MATN2 (parent)
chain: VNVPGSFVCQCYSGYALAEDGKRC

Variants of: B1
Assay: protein stability index of a GFP-peptide fusion (GPS, HEK-293T) (PSI 1-6); higher = more stable
Conditions: c terminus: a fixed tail appended
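Also: lentivirally expressed fusions sorted by FACS into six bins by GFP to DsRed ratio, PSI derived from sequencing read proportions per bin multiplied by bin number.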

Variant	protein stability index
V1Q	1.32
V1R	2.24
V1S	2.13
Y2A	2.52
Y2C	1.3
Y2E	3.36
Y2F	2.86
Y2G	1.89
Y2H	2.26
Y2I	3.75
Y2K	1.5
Y2M	2.83
Y2N	1.76
Y2P	1.44
Y2Q	2.42
Y2R	1.59
Y2S	1.87
Y2T	2.97
Y2W	2.26
Y3A	2.26
Y3C	3.23
Y3D	1.45
Y3E	1.5
Y3F	2.75
Y3G	1.22

Variant	protein stability index
Y3H	1.71
Y3I	3
Y3K	2.5
Y3M	1.77
Y3N	2.11
Y3P	2.12
Y3Q	3.86
Y3S	3.46
Y3V	3.21
Y3W	2.93
I4D	1.55
I4E	1.82
I4G	1.71
I4K	2.81
I4L	2.64
I4M	3.78
I4P	1.64
I4Q	2.65
I4R	3.07
I4S	2.12
I4W	1.94
I4Y	2.11
F5A	1.68
F5C	2.46
F5D	1.95

Variant	protein stability index
F5E	2.49
F5H	1.56
F5I	1.64
F5M	1.9
F5N	1.49
F5P	2.6
F5R	2.8
F5S	1.97
F5V	3.45
F5Y	1.81
E6A	2.38
E6C	3.08
E6D	3
E6F	3.18
E6K	2.23
E6L	4.01
E6M	2.41
E6N	2.65
E6P	1.83
E6R	2.09
E6T	2.61
E6W	2.59
E6Y	2.53
R7D	4.14
R7H	2.62

Variant	protein stability index
R7I	5.23
R7M	1.08
R7S	4.56
R7T	1.74
R7W	3.93
R7Y	2.98
L8C	1.64
L8D	3.16
L8E	3.97
L8I	1.62
L8K	3.25
L8P	2.29
L8R	2.86
L8T	2
C9F	1.95
C9G	3.15
C9H	2.02
C9I	1.31
C9K	1.6
C9L	1.67
C9N	1.04
C9P	3.02
C9R	3.16
C9S	2.34
C9T	2.26

Variant	protein stability index
C9W	4.32
A10H	3.56
A10L	3.17
A10M	1.39
A10N	3.54
A10R	1.53
A10S	2.39
A10T	2.74
A10V	3.16
A10W	2.4
P11A	1.17
P11C	1.09
P11D	1.87
P11E	1.76
P11F	1.83
P11G	2.08
P11H	3.92
P11I	2.89
P11K	3.65
P11L	1.89
P11N	1.86
P11Q	1.25
P11R	2.24
P11S	1.57
P11V	2.39

Variant	protein stability index
P11W	2.77
P11Y	1.83
L12C	2.21
L12E	2.07
L12F	2.5
L12G	2.59
L12H	3.56
L12I	3.19
L12K	2.57
L12M	2.71
L12N	1.98
L12P	5.2
L12T	1.97
L12Y	2.16
F13A	1.96
F13H	2
F13I	2.64
F13N	3.57
F13P	3.2
F13R	4.31
F13S	2.09
F13T	4.31
R14A	3.64
R14C	2.71
R14D	3.52

Variant	protein stability index
R14E	1.5
R14F	2.56
R14I	2.04
R14K	2.46
R14N	2.44
R14P	2.33
R14Q	3.82
R14T	3.18
R14Y	1.87
N15A	2.28
N15C	2.61
N15E	3.52
N15F	1.67
N15G	1.65
N15H	2.86
N15I	2.5
N15K	2.84
N15L	2.75
N15M	2.01
N15R	2
N15T	3.46
N15V	1.82
N15W	2.15
N15Y	1.85
I16A	1.91

Variant	protein stability index
I16C	2.46
I16D	3.95
I16G	2.33
I16K	2.45
I16L	2.61
I16M	1.75
I16T	1.58
I16W	3.96
I16Y	2.17
K17C	4.42
K17D	1.76
K17E	3.03
K17F	1.74
K17I	1.47
K17M	2.78
K17N	2.87
K17Q	2.52
K17R	2.04
K17V	3.1
K17Y	2.06
Q18C	2.19
Q18D	2.9
Q18F	1.28
Q18G	2.28
Q18H	3.42

Variant	protein stability index
Q18K	1.37
Q18M	2.92
Q18N	1.52
Q18P	2.92
Q18R	2.62
Q18T	1.91
Q18V	1.88
Q18W	2.6
Q18Y	3.88
E19A	2.12
E19C	3.4
E19D	2.08
E19F	1.58
E19G	2.86
E19H	1.93
E19I	2.6
E19K	2.4
E19L	1.52
E19M	1.88
E19N	1.47
E19P	2.76
E19Q	3.17
E19T	2.27
E19W	2.4
E19Y	2.41

Variant	protein stability index
P20A	2.34
P20G	2.71
P20I	2.71
P20K	1.88
P20L	2.48
P20M	2.49
P20N	2.53
P20Q	2.44
P20S	1.36
P20T	3.49
P20V	2.6
P20W	2.79
P20Y	4.1
F21A	2.07
F21C	1.99
F21D	2.17
F21E	2.39
F21H	1.59
F21I	2.94
F21L	1.7
F21M	2.64
F21N	1.36
F21P	2.26
F21Q	1.77
F21R	2.74

Variant	protein stability index
F21S	2.13
F21T	2.7
F21V	2.97
F21W	3.02
F21Y	2.9
S22A	2.65
S22D	2.88
S22E	2.61
S22F	2.66
S22G	2.8
S22H	1.92
S22I	3.73
S22K	1.96
S22M	3.1
S22N	2.3
S22Q	1.46
S22T	2.36
S22W	2.91
S22Y	3.56
A23C	1.65
A23I	2.1
A23K	2.41
A23L	2.55
A23N	2.53
A23P	2.21

Variant	protein stability index
A23Q	2.02
A23R	1.9
A23S	2.8
A23T	1.42
A23W	3.89
A23Y	3.86
R24A	2.27
R24D	3.13
R24E	3.4
R24H	2.48
R24I	2.73
R24K	2.42
R24L	2.79
R24M	2.64
R24N	4.22
R24V	2.57
R24Y	1.88

Variants of: B2
Assay: as above
Conditions: c terminus: a fixed tail appended

Variant	protein stability index
V1A	2.14
V1C	2.15
V1D	2.6
V1E	2.59
V1F	3.08
V1G	2.6
V1H	1.96
V1I	2.43
V1K	1.92
V1L	2.17
V1M	1.87
V1N	2.06
V1P	2.86
V1Q	2.01
V1R	1.37
V1S	3.31
V1T	2.36
V1W	2.91
V1Y	2.85
N2A	1.9
N2C	2.12

Variant	protein stability index
N2D	2.19
N2E	3.38
N2F	2.64
N2G	1.89
N2H	1.97
N2I	1.75
N2K	1.38
N2L	2.28
N2M	1.71
N2P	2.75
N2Q	2.28
N2S	1.82
N2T	2.35
N2V	1.25
N2W	1.79
N2Y	1.41
V3A	1.49
V3C	1.08
V3D	2.11
V3E	1.19
V3F	1.69
